Laboratory results as given in article PMC6515407, “Laccases with Variable Properties from Different Strains of Steccherinum ochraceum: Does Glycosylation Matter?” (International Journal of Molecular Sciences, 2019).

Columns and labels:
Settings in all cases: 0.1 M McIlvaine buffer pH 4.5, 25 °C, native glycosylated enzyme
[1] = substrate: COc1cc(C=NN=Cc2cc(OC)c(O)c(OC)c2)cc(OC)c1O; assay: spectrophotometric oxidation kinetics; format: biochemical, Steccherinum ochraceum
From the text: (§1) spectrophotometric oxidation kinetics on So3827

[2] = substrate: CCn1c(=NN=c2sc3cc(S(=O)(=O)O)ccc3n2CC)sc2cc(S(=O)(=O)O)ccc21; assay: spectrophotometric oxidation kinetics; format: biochemical, Steccherinum ochraceum
From the text: as §1

[3] = substrate: COc1cccc(OC)c1O; assay: spectrophotometric oxidation kinetics; format: biochemical, Steccherinum ochraceum
From the text: (§2) spectrophotometric oxidation kinetics on So3120

[4] = substrate: COc1cc(C=NN=Cc2cc(OC)c(O)c(OC)c2)cc(OC)c1O; assay: spectrophotometric oxidation kinetics; format: biochemical, Steccherinum ochraceum; remark: listed apart in the source
From the text: as §2

[5] = substrate: CCn1c(=NN=c2sc3cc(S(=O)(=O)O)ccc3n2CC)sc2cc(S(=O)(=O)O)ccc21; assay: spectrophotometric oxidation kinetics; format: biochemical, Steccherinum ochraceum; remark: listed apart in the source
From the text: as §2

[6] = substrate: COc1cc(C=NN=Cc2cc(OC)c(O)c(OC)c2)cc(OC)c1O; assay: spectrophotometric oxidation kinetics; format: biochemical, Steccherinum ochraceum; remark: listed apart in the source
From the text: (§3) spectrophotometric oxidation kinetics on So3617

[7] = substrate: CCn1c(=NN=c2sc3cc(S(=O)(=O)O)ccc3n2CC)sc2cc(S(=O)(=O)O)ccc21; assay: spectrophotometric oxidation kinetics; format: biochemical, Steccherinum ochraceum; remark: listed apart in the source
From the text: as §3

purified protein = substrate: COc1ccccc1O; assay: purified protein
[8] = substrate: COc1cccc(OC)c1O; assay: spectrophotometric oxidation kinetics; format: biochemical, Steccherinum ochraceum; remark: listed apart in the source
From the text: (§4) spectrophotometric oxidation kinetics on So3174

[9] = substrate: COc1cc(C=NN=Cc2cc(OC)c(O)c(OC)c2)cc(OC)c1O; assay: spectrophotometric oxidation kinetics; format: biochemical, Steccherinum ochraceum; remark: listed apart in the source
From the text: as §4

[10] = substrate: CCn1c(=NN=c2sc3cc(S(=O)(=O)O)ccc3n2CC)sc2cc(S(=O)(=O)O)ccc21; assay: spectrophotometric oxidation kinetics; format: biochemical, Steccherinum ochraceum; remark: listed apart in the source
From the text: as §4

[11] = substrate: Oc1ccccc1O; assay: spectrophotometric oxidation kinetics; format: biochemical, Steccherinum ochraceum
From the text: as §4

[12] = substrate: COc1cccc(OC)c1O; assay: spectrophotometric oxidation kinetics; format: biochemical, Steccherinum ochraceum; remark: listed apart in the source
From the text: (§5) spectrophotometric oxidation kinetics on So3398

[13] = substrate: COc1cc(C=NN=Cc2cc(OC)c(O)c(OC)c2)cc(OC)c1O; assay: spectrophotometric oxidation kinetics; format: biochemical, Steccherinum ochraceum; remark: listed apart in the source
From the text: as §5

[14] = substrate: CCn1c(=NN=c2sc3cc(S(=O)(=O)O)ccc3n2CC)sc2cc(S(=O)(=O)O)ccc21; assay: spectrophotometric oxidation kinetics; format: biochemical, Steccherinum ochraceum; remark: listed apart in the source
From the text: as §5

[15] = substrate: COc1cc(C=NN=Cc2cc(OC)c(O)c(OC)c2)cc(OC)c1O; assay: spectrophotometric oxidation kinetics; format: biochemical, Steccherinum ochraceum; remark: listed apart in the source
From the text: (§6) spectrophotometric oxidation kinetics on So3622

[16] = substrate: CCn1c(=NN=c2sc3cc(S(=O)(=O)O)ccc3n2CC)sc2cc(S(=O)(=O)O)ccc21; assay: spectrophotometric oxidation kinetics; format: biochemical, Steccherinum ochraceum; remark: listed apart in the source
From the text: as §6

B1: So3827 (Steccherinum ochraceum) (protein)
chain: VQIGPVTDLHITNANIAPDGFTRPAVLAGGTFPGPTISGNTGDNFQITVFNELTETSMLTDTSIHWHGLFQKGTNWADGPAFVTQCPIITGNSFDYNFNVPGQAGTYWYHSHLSTQYCDGLRGPFVVYDPNDPNASLYDVDDDTTIITLADWYHTLAQQEPIGAAITADATLINGLGRSFTNTTASPLSVITVQSGKRYRMRLVSISCDPNYQFSIDGHDMTIIEVDGVNSQQLTVDQIQIFAAQRYSFVLNANQPVGNYWIRAQPNSGGQGFDGGINSAILRYEGATVADPTTSPPTTFTSPLVETNLHPLADLGVPGQPFRGGADDPMVLNLGFANGRFTIDGVSFVPPTVPVLLQILSGAQNAQDLLPAGSVISLPPNSVIEVALPAGAAGGPHPFHLHGHNFAVVQSANNATPNYVNPIWRDTVSIGGTGDNVTIRFTTNNPGPWFLHCHIDWHLEAGFAIVFAEDIPDTASANPVPQAWSDLCPAYDQAHNISTAT
[1]
  Km: 6.7 ± 0.9 µM
  kcat: 113 ± 12 s⁻¹
  kcat/Km: 1.69e+07 ± 2.87e+06 M⁻¹ s⁻¹
[2]
  Km: 200 ± 7 µM
  kcat: 276 ± 31 s⁻¹
  kcat/Km: 1.38e+06 ± 162000 M⁻¹ s⁻¹

B2: So3120 (Steccherinum ochraceum) (protein)
chain: VQIGPVTDLHITNANIAPDGFTRPAVLAGGTFPGPTISGNTGDNFQITVFNELTETSMLTDTSIHWHGLFQKGTNWADGPAFVTQCPIITGNSFDYNFNVPGQAGTYWYHSHLSTQYCDGLRGPFVVYDPNDPNASLYDVDDDTTIITLADWYHTLAQQEPIGAAITADATLINGLGRSFTNTTASPLSVITVQSGKRYRMRLVSISCDPNYQFSIDGHDMTIIEVDGVNSQQLTVDQIQIFAAQRYSFVLNANQPVGNYWIRAQPNSGGQGFDGGINSAILRYEGATVADPTTSPPTTFTSPLVETNLHPLADLGVPGQPFRGGADDPMVLNLGFANGRFTIDGVSFVPPTVPVLLQILSGAQNAQDLLPAGSVISLPPNSVIEVALPAGAAGGPHPFHLHGHNFAVVQSANNATPNYVNPIWRDTVSIGGTGDNVTIRFTTNNPGPWFLHCHIDWHLEAGFAIVFAEDIPDTASANPVPQAWSDLCPAYDQAHNISTAT
[3]
  Km: 17 ± 3 µM
  kcat: 110 ± 14 s⁻¹
  kcat/Km: 6.47e+06 ± 1.27e+06 M⁻¹ s⁻¹
[4]
  Km: 5.4 ± 0.8 µM
  kcat: 105 ± 12 s⁻¹
  kcat/Km: 1.94e+07 ± 3.62e+06 M⁻¹ s⁻¹
[5]
  Km: 175 ± 23 µM
  kcat: 325 ± 28 s⁻¹
  kcat/Km: 1.86e+06 ± 290000 M⁻¹ s⁻¹

B3: So3617 (Steccherinum ochraceum) (protein)
chain: VQIGPVTDLHITNANIAPDGFTRPAVLAGGTFPGPTISGNTGDNFQITVFNELTETSMLTDTSIHWHGLFQKGTNWADGPAFVTQCPIITGNSFDYNFNVPGQAGTYWYHSHLSTQYCDGLRGPFVVYDPNDPNASLYDVDDDTTIITLADWYHTLAQQEPIGAAITADATLINGLGRSFTNTTASPLSVITVQSGKRYRMRLVSISCDPNYQFSIDGHDMTIIEVDGVNSQQLTVDQIQIFAAQRYSFVLNANQPVGNYWIRAQPNSGGQGFDGGINSAILRYEGATVADPTTSPPTTFTSPLVETNLHPLADLGVPGQPFRGGADDPMVLNLGFANGRFTIDGVSFVPPTVPVLLQILSGAQNAQDLLPAGSVISLPPNSVIEVALPAGAAGGPHPFHLHGHNFAVVQSANNATPNYVNPIWRDTVSIGGTGDNVTIRFTTNNPGPWFLHCHIDWHLEAGFAIVFAEDIPDTASANPVPQAWSDLCPAYDQAHNISTAT
[6]
  Km: 5.2 ± 0.6 µM
  kcat: 89 ± 10 s⁻¹
  kcat/Km: 1.71e+07 ± 2.69e+06 M⁻¹ s⁻¹
[7]
  Km: 212 ± 10 µM
  kcat: 228 ± 21 s⁻¹
  kcat/Km: 1.08e+06 ± 111000 M⁻¹ s⁻¹

B4: So3174 (Steccherinum ochraceum) (protein)
chain: VQIGPVTDLHITNANIAPDGFTRPAVLAGGTFPGPTISGNTGDNFQITVFNELTETSMLTDTSIHWHGLFQKGTNWADGPAFVTQCPIITGNSFDYNFNVPGQAGTYWYHSHLSTQYCDGLRGPFVVYDPNDPNASLYDVDDDTTIITLADWYHTLAQQEPIGAAITADATLINGLGRSFTNTTASPLSVITVQSGKRYRMRLVSISCDPNYQFSIDGHDMTIIEVDGVNSQQLTVDQIQIFAAQRYSFVLNANQPVGNYWIRAQPNSGGQGFDGGINSAILRYEGATVADPTTSPPTTFTSPLVETNLHPLADLGVPGQPFRGGADDPMVLNLGFANGRFTIDGVSFVPPTVPVLLQILSGAQNAQDLLPAGSVISLPPNSVIEVALPAGAAGGPHPFHLHGHNFAVVQSANNATPNYVNPIWRDTVSIGGTGDNVTIRFTTNNPGPWFLHCHIDWHLEAGFAIVFAEDIPDTASANPVPQAWSDLCPAYDQAHNISTAT
Purified protein
  Km: 2230 ± 205 µM
  kcat: 152 s⁻¹
  kcat/Km: 68000 M⁻¹ s⁻¹
[8]
  Km: 20 ± 2 µM
  kcat: 101 ± 9 s⁻¹
  kcat/Km: 5.05e+06 ± 755000 M⁻¹ s⁻¹
[9]
  Km: 3.8 ± 0.6 µM
  kcat: 104 ± 11 s⁻¹
  kcat/Km: 2.74e+07 ± 5.09e+06 M⁻¹ s⁻¹
[10]
  Km: 81 ± 9 µM
  kcat: 240 ± 21 s⁻¹
  kcat/Km: 2.96e+06 ± 416000 M⁻¹ s⁻¹
[11]
  Km: 576 ± 86 µM
  kcat: 373 ± 27 s⁻¹
  kcat/Km: 648000 ± 108000 M⁻¹ s⁻¹

B5: So3398 (Steccherinum ochraceum) (protein)
chain: VQIGPVTDLHITNANIAPDGFTRPAVLAGGTFPGPTISGNTGDNFQITVFNELTETSMLTDTSIHWHGLFQKGTNWADGPAFVTQCPIITGNSFDYNFNVPGQAGTYWYHSHLSTQYCDGLRGPFVVYDPNDPNASLYDVDDDTTIITLADWYHTLAQQEPIGAAITADATLINGLGRSFTNTTASPLSVITVQSGKRYRMRLVSISCDPNYQFSIDGHDMTIIEVDGVNSQQLTVDQIQIFAAQRYSFVLNANQPVGNYWIRAQPNSGGQGFDGGINSAILRYEGATVADPTTSPPTTFTSPLVETNLHPLADLGVPGQPFRGGADDPMVLNLGFANGRFTIDGVSFVPPTVPVLLQILSGAQNAQDLLPAGSVISLPPNSVIEVALPAGAAGGPHPFHLHGHNFAVVQSANNATPNYVNPIWRDTVSIGGTGDNVTIRFTTNNPGPWFLHCHIDWHLEAGFAIVFAEDIPDTASANPVPQAWSDLCPAYDQAHNISTAT
[12]
  Km: 17 ± 3 µM
  kcat: 152 ± 12 s⁻¹
  kcat/Km: 8.94e+06 ± 1.52e+06 M⁻¹ s⁻¹
[13]
  Km: 5.6 ± 0.8 µM
  kcat: 119 ± 11 s⁻¹
  kcat/Km: 2.12e+07 ± 3.56e+06 M⁻¹ s⁻¹
[14]
  Km: 209 ± 27 µM
  kcat: 281 ± 26 s⁻¹
  kcat/Km: 1.34e+06 ± 214000 M⁻¹ s⁻¹

B6: So3622 (Steccherinum ochraceum) (protein)
chain: VQIGPVTDLHITNANIAPDGFTRPAVLAGGTFPGPTISGNTGDNFQITVFNELTETSMLTDTSIHWHGLFQKGTNWADGPAFVTQCPIITGNSFDYNFNVPGQAGTYWYHSHLSTQYCDGLRGPFVVYDPNDPNASLYDVDDDTTIITLADWYHTLAQQEPIGAAITADATLINGLGRSFTNTTASPLSVITVQSGKRYRMRLVSISCDPNYQFSIDGHDMTIIEVDGVNSQQLTVDQIQIFAAQRYSFVLNANQPVGNYWIRAQPNSGGQGFDGGINSAILRYEGATVADPTTSPPTTFTSPLVETNLHPLADLGVPGQPFRGGADDPMVLNLGFANGRFTIDGVSFVPPTVPVLLQILSGAQNAQDLLPAGSVISLPPNSVIEVALPAGAAGGPHPFHLHGHNFAVVQSANNATPNYVNPIWRDTVSIGGTGDNVTIRFTTNNPGPWFLHCHIDWHLEAGFAIVFAEDIPDTASANPVPQAWSDLCPAYDQAHNISTAT
[15]
  Km: 5.5 ± 0.7 µM
  kcat: 83 ± 7 s⁻¹
  kcat/Km: 1.51e+07 ± 2.21e+06 M⁻¹ s⁻¹
[16]
  Km: 174 ± 11 µM
  kcat: 252 ± 20 s⁻¹
  kcat/Km: 1.45e+06 ± 147000 M⁻¹ s⁻¹
